For assay [1], the target named is Biotinylated SARS-CoV-2 (Wuhan) RBD (SARS-CoV-2 (Wuhan), UniProt P0DTC2, biotin (EZ-Link Sulfo-NHS-LC-biotin per p-0040; Lys15 biotinylation site within the N-terminal AviTag per fig-0003 and p-0075)). The experiment in a line: SPR. The settings on record: both partners purified.
In assay [2] the target is Soluble monovalent SARS-CoV-2 RBD (RBD-H) (SARS-CoV-2 (Wuhan, assumed), UniProt P0DTC2). The experiment in a line: SPR. The note with it: both partners purified.

B1: FD-5D antibody (antibody, V domains shown)
VH: EVQLVESGGGLVQPGGSLRLSCAASGFTFSSYSMNWVRQAPGKGLEWVSYISSSSSTIYYADSVKGRFTISRDNAKNSLYLQMNSLRAEDTAVYYCASPGGITAAGTSVLFGYYGMDVWGQGTTVTVSS
VL: not shown
notes: source: ExpiCHO, transfected, purified (MabSelect SuRe); copies: 2 + 2
As to B1, the binding result in assay [1] and in assay [2] was “binds” each time.

B2: REGN10987 therapeutic antibody (antibody, V domains shown)
VH: QVQLVESGGGVVQPGRSLRLSCAASGFTFSNYAMYWVRQAPGKGLEWVAVISYDGSNKYYADSVKGRFTISRDNSKNTLYLQMNSLRTEDTAVYYCASGSDYGDYLLVYWGQGTLVTVSS
VL: QSALTQPASVSGSPGQSITISCTGTSSDVGGYNYVSWYQQHPGKAPKLMIYDVSKRPSGVSNRFSGSKSGNTASLTISGLQSEDEADYYCNSLTSISTWVFGGGTKLTVL
notes: as for B1
As to B2, the binding result in assay [1] was “binds”.

B3: FI-3A antibody (antibody, V domains shown)
VH: EVQLLESGGGLIQPGGSLRLSCAASGFTVSSNYMSWVRQAPGKGLEWVSVIYSGGSTYYADSVKGRFTISRDNSKNTLYLQMNSLRAEDTAVYYCARDHVRPGMNIWGQGTMVTVSS
VL: not shown
notes: as for B1
On to B3, for which the binding result in assay [1] and in assay [2] was “binds” each time.

B4: FD-11A IgG1 antibody (antibody, V domains shown)
VH: EVQLVESGGGVVQPGRSLRLSCAASGFTFSSYGMHWVRQAPGKGLEWVAVIWYDGSNKYYADSVKGRFTISRDNSKNTLYLQMNSLRAEDTAVYYCAKGPDILTGYYNYYYYGMDVWGQGTMVTVSS
VL: QSVLTQPPSVSGAPGQRVTISCTGSSSNIGAGYDVHWYQQLPGTAPKLLIYGNSNRPSGVPDRFSGSKSGTSASLAITGLQAEDEADYYCQSYDSSLSGFYVVFGGGTKLTVL
notes: also called IgG1 FD-11A; source: ExpiCHO, transfected, purified (MabSelect SuRe); copies: 2 + 2
What is called Kd is the constant that tells how readily two partners part at equilibrium. B4 displayed a Kd in assay [1] of 1230 nM.

B5: EY6A antibody (antibody, V domains shown)
VH: EVQLVESGGGVVQPGRSLRLSCAASAFTFSSYDMHWVRQAPGKGLEWVAVISYDGSNKYYADSVKGRFTISRDNSKNTLYLQMNSLRAEDTAVYYCAKDGGKLWVYYFDYWGQGTLVTVSS
VL: not shown
notes: as for B1
As for B5, the binding result in assay [1] and in assay [2] was “binds” each time.

The values are drawn from PMC11695720 (Nature Communications, 2025).
